Reference: the DeepSol protein solubility set

Experiment: soluble on expression in E. coli; label from the status in PepcDB or PDB records

Soluble on expression in E. coli, not soluble:
MGSDKIHHHHHHMSLEKERIEKEHIEEMNQAKLRFFTNVSHEFRTPLTLIISQVELMLQKNTIPPSLHNSIFRIRKHAQQMKLLISELLDFRKFDQNYIQLKLSEQSLNTFLEEVYLSFSAYASQKSISYHLKLLEQDISIWIDDWQMRKVLFNLLSNAFKHVPDKGEISILTSTTPDQVVIAVKDSGNGISKEEQERIFDRFYQADNRNKAIHVGTGIGLALTKSIIQLHHGTIEVESELNEGSCFIVKLPKTRDCFEKDTEVVFLESPEKEPMVQENTIPDENFMKKDDSTFETPLIDEREGKRKVLLVEDNVELLQVLKEIFSSLYQVVTAANGEEGLKQAFAEVPDLIVSDVMMPVMTGTEMCLKIKNNINLCHIPVVLLTALDTVDQNIEGLRRGADDYITKPFNAKILITRCNNLIRNRLLMQSRFAKDQILEINLLAANPIDKGFLDRVIKVVDKHIDNEDFDIGMLCQELGMGRTLLHTKFKALTGMTPNEFILNHRLKIASLMLKNEPYLQVAEISDRLGFGSPRYFSRCFKNQYNVTPMEYRKGAKQENLK, MGSDKIHHHHHHMSLIERAADKLVKNDMNGFMPGSVSQHDSREGIGPDSLFSSDGVPGKKTGHGRIIKEEVGADRINKAADTKKTVKRIEVDLENLHRKGVVTLHHTKSEIAEQFRLIKRPLLANAFNPDSGVKNGNLIMVTSSLSGEGKSFCSLNLAMSIAMEMDHRVLLVDADVARPSIPATLGFSPEEPGLLDMLRDSQLSISDVMMKTNIKKLTLIPAGRRHTHATELLASQSMHSILVELAQRYHDRVVIFDSPPLLLTSEARVLASQMGQIVLVVEAERTTQQTVKEALQQIEACDVVNLIYNKARAHGSTEYYGYY, MGSDKIHHHHHHMSLKEEQVSIKQDPEQEERQHDQFNDVQIKQESQDHDGVDSQYTNGTQNDDSERFEAAESDVKVEPGLGMGITSSQSEKGQVLPDQPEIKFIRRQINGYVGFANLPKQWHRRSIKNGFSFNLLCVGPDGIGKTTLMKTLFNNDDIEANLVKDYEEELANDQEEEEGQGEGHENQSQEQRHKVKIKSYESVIEENGVKLNLNVIDTEGFGDFLNNDQKSWDPIIKEIDSRFDQYLDAENKINRHSINDKRIHACLYFIEPTGHYLKPLDLKFMQSVYEKCNLIPVIAKSDILTDEEILSFKKTIMNQLIQSNIELFKPPIYSNDDAENSHLSERLFSSLPYAVIGSNDIVENYSGNQVRGRSYPWGVIEVDNDNHSDFNLLKNLLIKQFMEELKERTSKILYENYRSSKLAKLGIKQDNSVFKEFDPISKQLEEKTLHEAKLAKLEIEMKTVFQQKVSEKEKKLQKSETELFARHKEMKEKLTKQLKALEDKKKQLELSINSASPNVNHSPVPTKKKGFLR, MGSDKIHHHHHHMSLLALFSLFGCDNAANTATICKNNPELCDDLHRDSWCRYERADLIQKRYTLKNTPSPTGKQIYQHLINLENYSKCIELAAGVQHIMHPERTNDRVRAFGISAQNLAQLRETTKDNPDLYLSYYHWIRLNDQAALSRVIKAQQAGSIKDLEILASLASYYQKSDLDKAKALYLQLLDSADPDSFNPDWLLGLASIYHQQNDLEKTYLFSKANVLMTRNTASDAKMNALINGNQQLAHFLDEQADTLVEHLKNGDYASSEIRAQLNTSS, MGSDKIHHHHHHMSLRPYREIARRKSRQIHVGSVAVGGDAPISVQTMTNTLTTDVKGTLEQIRRAADAGADLVRVSCPDEDSTKAFKQIAKESPVPLIADIHFHYKRGIEAAEAGAACLRINPGNIGSHERVREVVKAAKDHGCSMRIGVNAGSLDKHLLDKYGEPCPEALVESALEHAKLLEDNDFFEFKIAVKASDVFLAVAAYQGLAKACDYPLHLGITEAGGLIGGTVKSSIGIGSLLWQGIGDTLRVSLSADVTEEVKVGFEMLKALDLRHRGVRIVSCPSCARQGFDVIKTVETLENRLSHVRAPVTLSILGCVVNGPGEARETMVGITGGGSDNHKVYIGGSPDHNVDGKSMVDHIVELVEARAAEIEAAKAGGK, MGSDKIHHHHHHMSMNHIRPWRNIERRKSRQIHVGNVPVGGDAPIAVQTMTNTLTTDIKGTIAQVQAAADAGADIVRVSVPDEASARALKEIVRESPVPIVADIHFHYKRGIEAAEAGAACLRINPGNIGDEKRVAEVIKAARDHNCSIRIGVNAGSLEKHLLEKYGEPCPDAMVESGLDHIKILQDHDFHEFKISVKASDVFMSAAAYQMLADATDAPIHLGITEAGGLMSGTIKSAIGLGQLLWMGIGDTLRVSLSADPVEEVKVGFEILKSLGLRHRGVNIISCPSCARQGFDVIKTVETLEERLEHIKTPMSLSIIGCVVNGPGEALMTDVGFTGGGAGSGMVYLAGKASHKMSNDQMIDHIVEEVEKKAAALDAQAAEDMKAAE, MGSDKIHHHHHHMSMTDTTLAETEILLAQPRGFCAGVDRAIEIVERAIKLHGSPIYVRHEIVHNAYVVEDLRKKGAIFIERLEEVPPGNTVIFSAHGVSKAVRSEAEIRGLRVYDATCPLVTKVHIEVAKMRQDGFDIVMIGHKGHPEVEGTMGQAGEGMHLVEDIEDVQALQLADPERIAFVTQTTLSVDDAAQIIAALKAKYPSIREPKKQDICYATQNRQDAVKFMAPQCDVVIVVGSPNSSNSNRLRELAEKLGVPAYMVDSPDQIDPVWVEGKRRIGVTAGASAPEVLAQAVIARLRELGVRNVRALDGIEENIAFPLPRGLGLPA, MGSDKIHHHHHHMSNKQHSTTITLPRGTLDLTYQTNAASGNNDLKESSRYQLEDLLDFAQRINPKRAFLFVSKVLGRHIPVAPSTMRDAFTDLANLVPDDLPEPILVIGMAETAVGLSAGVHQALQTRYPQALLLNSTRHAQHDNDNTNNLLTTFSEDHSHASQHLIYQSADKVTQAQLLASKTLIMVDDEASTGNTCVNVVTALRNAGLMQLQQVHLTTLVDWSLNQNQTDAKADDTIASRLPNIDFYRHHLLSGAWKWTDAPNPEPIIMPSVDTTEAGSQALAHTGHWGRFPTLDSTDGFANYLASFQTTFAIFDGQTAFDNAQLPQKILVLGSNEFVWLPFLLAEWLEQNADTVIDNQVIKFSALTRSPIALGGGISTMLSFHDNYGLGMTNFAYNVDPSNWDLIVLCVETSADGVDAMWQDLDNVLIVSPK, MGSDKIHHHHHHMSNRIDHAKAAGAFISKTEHVAFHDRRLWDLREKRDAQAHGIAEWETMRELASGIKEHTLSNLSTYLEQFAAAAEANGVTVHWAATAEEHNALVHQLMSERGMTTLVKSKSMLTDECKMREYLEPRGITVMETDLGERIQQLDHQDPSHMVVPAVHKLRADVAELFGRTIGTDPKNSDIHYLAESQRMNTRPYFVREKTAGMTGCNFAVAETGTVVVCTNEGNADLSANVPPLHIASIGIEKLIPKVSDLGVFIRMLSRSALGSPITQYTSHFRAPRKGTEMHFILVDHGRSERLAMEDFWYSLKCIRCGACMNTCPVYRRSGGLSYGGTYSGPIGAIINPTFDLKRYSALPFASTLNGSCTNVCPVKINIHEQIYKWRTVIAGHHEVPFVKQEVLKMAGRLLASPTLYRATVSSMGSALRRLPNFVLYNPLNIWGKQRELPEAPKLTFHAWYKKNRGADHDNA, MGSDKIHHHHHHMSNSELYYEELTDLSVRIALGIKNRTEPLDELSQAMTQLSQTNAIKGNAANAMKAYINEVHMTLIQTLELLLNNYEMALGKYVKGYLEVDSDESFKLIKEDFDAHKNNLSSHQSDFTSIGNKLKAISDEAEDIISLRGAGSKRLFNVAKDMGTMKEIVSNLNNKWNDYEQSDPGFNQVQDLIAQTTSLLKSTLSVPRGYSYSPGSFSKLISKDFVNAFEVNANYAQNPDNQKAFKANWNSISKNYTTDQKRMAEEAKEEAQKDGRIGLIWDAIASCCRNSACCDRSWSGFWCCSHCRWY, MGSDKIHHHHHHMSPRLGDSAEMFVPQEQSGLNEAAPAAPRRPYRLSRRPEERVHVLGGTMDLVRPEEVFHFVTGKLEARQNAIVANHNLHSLYLIGKDHQIGQFYKAADLIEVDSVPLIFWARLVGRASRRFHRCTYLDWRDAFWALASEKNWKVFFVGGAPGVGEKAVERIRQDWPNARIETHHGYFDATQGSAENTAVVAKIRDYAPDIVLVGMGMPRQEIWTLENHQAYGPAATFTVGGAFDYEAGVQKAAPRWMGPLGMEWLFRLMSDPQRLFFRYCIEPWSLIGPACGDVVRALSRRSTTGESRAAENARWEQIRARNEAAR
